Measurements: patent US20050282216A1
pKd: −log10 of the molar value.

What was measured:
[1] = target: human IL-13Rα (human) (UniProt P78552); assay: radioligand binding on CHO cells; the basis of this value is not explained
[2] = target: human IL-13Rβ (human) (UniProt Q14627); assay: Scatchard analysis of saturation binding of 125I-labelled IL-13 on Caki-1 cells
[3] = target: human IL-13Rα (human) (UniProt P78552); assay: Scatchard analysis of saturation binding on CHO cells transfected with IL-13Rα cDNA
[4] = target: human IL-13Rβ (human) (UniProt Q14627); assay: Scatchard analysis of saturation binding on COS-7 cells transfected with IL-13Rβ cDNA
[5] = target: hIL-13Rα and hIL-4R coexpressed on cells (reconstituted high-affinity receptor) (human) (UniProt P24394); assay: Scatchard analysis on CHO-hIL4R cells transfected with hIL-13Rα cDNA, high-affinity site
[6] = target: human IL-13Rα (human) (UniProt P78552); assay: Scatchard analysis on CHO-hIL4R cells transfected with hIL-13Rα cDNA, low-affinity site (nonassociated IL-13Rα chains)

Chain of UniProt P78552 (P78552 22-427 limits assumed, form in doubt): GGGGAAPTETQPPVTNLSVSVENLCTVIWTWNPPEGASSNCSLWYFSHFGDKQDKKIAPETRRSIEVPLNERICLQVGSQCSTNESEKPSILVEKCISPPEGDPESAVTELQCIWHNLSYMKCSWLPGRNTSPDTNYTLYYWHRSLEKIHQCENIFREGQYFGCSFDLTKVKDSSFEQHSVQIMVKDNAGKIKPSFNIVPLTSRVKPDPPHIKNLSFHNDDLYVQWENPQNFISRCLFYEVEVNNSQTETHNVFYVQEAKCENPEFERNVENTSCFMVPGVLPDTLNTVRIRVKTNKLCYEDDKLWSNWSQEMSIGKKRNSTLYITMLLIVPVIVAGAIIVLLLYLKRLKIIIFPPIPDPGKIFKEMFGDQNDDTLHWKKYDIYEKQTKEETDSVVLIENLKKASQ
Chain of UniProt Q14627 (Q14627 27-380 limits assumed, form in doubt): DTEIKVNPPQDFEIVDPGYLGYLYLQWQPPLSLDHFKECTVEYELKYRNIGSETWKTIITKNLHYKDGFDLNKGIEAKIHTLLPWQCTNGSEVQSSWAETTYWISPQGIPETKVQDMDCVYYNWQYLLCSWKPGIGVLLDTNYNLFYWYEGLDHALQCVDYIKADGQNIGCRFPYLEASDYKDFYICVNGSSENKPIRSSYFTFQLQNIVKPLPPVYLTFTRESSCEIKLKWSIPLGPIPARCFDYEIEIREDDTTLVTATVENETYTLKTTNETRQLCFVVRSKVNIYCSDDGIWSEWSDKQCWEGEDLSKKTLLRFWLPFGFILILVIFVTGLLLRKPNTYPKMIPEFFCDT

pKd [1]: 8.12
pKd [2]: 9.35
pKd [3]: 8.35
pKd [4]: 9.60
pKd [5]: 10.64
pKd [6]: 8.38
Substance: [125I][Phe43]-IL-13-GlyTyrGlyTyr (from UniProt P35225 35-146) (ligand)
